Values quoted from earlier work, collected in publication PMC5722893.

Columns and labels:
[1] = target: TSLP:TSLPR complex (Homo sapiens) (UniProt Q969D9)
TSLPR (Homo sapiens) = TSLPR (Homo sapiens) (UniProt Q9HC73)
Chain of UniProt Q9HC73 (Q9HC73 23-231): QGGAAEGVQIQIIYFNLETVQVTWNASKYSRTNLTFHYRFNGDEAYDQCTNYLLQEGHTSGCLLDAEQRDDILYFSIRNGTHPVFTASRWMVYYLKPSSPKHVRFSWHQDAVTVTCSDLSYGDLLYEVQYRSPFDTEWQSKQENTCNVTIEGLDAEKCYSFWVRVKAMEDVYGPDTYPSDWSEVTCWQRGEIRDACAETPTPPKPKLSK

Row | Substance | Kd [1] [µM] | Kd (TSLPR (Homo sapiens)) [µM]
1 | IL-7Ralpha (from UniProt P16871) | 0.029 | 
2 | TSLP (from UniProt Q969D9) |  | 0.032
